Assays:
Assay in all cases: Kinase Profiling Assay
Assay type in all cases: biochemical
Details in all cases: 100 μM
Axl(h) = Axl(h) (Homo sapiens, UniProt P30530)
Arg(h) = Arg(h) (Homo sapiens, UniProt P42684)
CHK2(I157T)(h) = CHK2(I157T)(h) (Homo sapiens, UniProt O96017, I157T)
GRK7(h) = molecular target: T1, GRK7(h) (Homo sapiens, UniProt Q8WTQ7)
T1 sequence (Q8WTQ7 1-553): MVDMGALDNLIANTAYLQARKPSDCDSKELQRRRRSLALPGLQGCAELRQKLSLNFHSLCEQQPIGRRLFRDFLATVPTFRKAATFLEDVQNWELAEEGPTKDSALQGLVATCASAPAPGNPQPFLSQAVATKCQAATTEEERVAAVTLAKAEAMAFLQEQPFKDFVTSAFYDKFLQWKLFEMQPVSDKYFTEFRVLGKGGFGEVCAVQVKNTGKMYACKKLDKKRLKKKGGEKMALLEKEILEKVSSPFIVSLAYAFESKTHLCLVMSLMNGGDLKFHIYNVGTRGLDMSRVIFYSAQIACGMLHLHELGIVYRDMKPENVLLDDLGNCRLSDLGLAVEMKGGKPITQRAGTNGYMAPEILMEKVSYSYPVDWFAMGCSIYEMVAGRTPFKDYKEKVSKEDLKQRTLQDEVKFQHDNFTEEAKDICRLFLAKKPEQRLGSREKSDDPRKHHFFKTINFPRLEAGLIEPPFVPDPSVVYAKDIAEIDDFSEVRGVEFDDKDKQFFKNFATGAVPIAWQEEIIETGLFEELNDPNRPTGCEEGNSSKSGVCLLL

PTK5(h) = PTK5(h) (Homo sapiens, UniProt P42685)
PhKγ2(h) = molecular target: T2, PhKγ2(h) (Homo sapiens, UniProt P15735)
T2 sequence (P15735 1-406): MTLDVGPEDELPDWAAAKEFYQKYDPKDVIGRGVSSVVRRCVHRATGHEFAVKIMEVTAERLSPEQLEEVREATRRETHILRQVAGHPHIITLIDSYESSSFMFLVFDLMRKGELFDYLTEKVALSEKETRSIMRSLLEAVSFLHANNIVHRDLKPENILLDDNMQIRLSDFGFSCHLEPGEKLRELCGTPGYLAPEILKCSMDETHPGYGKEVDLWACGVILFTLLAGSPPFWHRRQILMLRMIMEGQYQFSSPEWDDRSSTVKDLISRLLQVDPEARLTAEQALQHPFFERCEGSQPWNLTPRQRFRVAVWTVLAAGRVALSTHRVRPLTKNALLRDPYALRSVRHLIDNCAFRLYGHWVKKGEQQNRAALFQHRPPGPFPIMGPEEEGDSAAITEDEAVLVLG

SGK3(h) = molecular target: T3, SGK3(h) (Homo sapiens, UniProt Q96BR1)
T3 sequence (Q96BR1 1-496): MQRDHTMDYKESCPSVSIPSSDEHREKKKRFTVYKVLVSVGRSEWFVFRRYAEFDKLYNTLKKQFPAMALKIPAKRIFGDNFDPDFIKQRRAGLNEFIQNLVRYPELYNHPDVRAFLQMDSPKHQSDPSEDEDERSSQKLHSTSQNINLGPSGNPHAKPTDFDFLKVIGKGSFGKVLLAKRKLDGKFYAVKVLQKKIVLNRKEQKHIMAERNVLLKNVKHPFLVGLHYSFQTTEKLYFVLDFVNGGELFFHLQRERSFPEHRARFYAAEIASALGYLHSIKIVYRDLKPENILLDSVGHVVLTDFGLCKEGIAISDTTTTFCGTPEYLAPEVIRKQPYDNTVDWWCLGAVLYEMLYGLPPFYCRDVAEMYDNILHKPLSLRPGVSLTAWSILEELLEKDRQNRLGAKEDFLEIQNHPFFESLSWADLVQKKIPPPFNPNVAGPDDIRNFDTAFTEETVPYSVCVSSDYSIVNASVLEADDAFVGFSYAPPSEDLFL

EphA1(h) = molecular target: T4, EphA1(h) (Homo sapiens, UniProt P21709)
T4 sequence (P21709 26-976): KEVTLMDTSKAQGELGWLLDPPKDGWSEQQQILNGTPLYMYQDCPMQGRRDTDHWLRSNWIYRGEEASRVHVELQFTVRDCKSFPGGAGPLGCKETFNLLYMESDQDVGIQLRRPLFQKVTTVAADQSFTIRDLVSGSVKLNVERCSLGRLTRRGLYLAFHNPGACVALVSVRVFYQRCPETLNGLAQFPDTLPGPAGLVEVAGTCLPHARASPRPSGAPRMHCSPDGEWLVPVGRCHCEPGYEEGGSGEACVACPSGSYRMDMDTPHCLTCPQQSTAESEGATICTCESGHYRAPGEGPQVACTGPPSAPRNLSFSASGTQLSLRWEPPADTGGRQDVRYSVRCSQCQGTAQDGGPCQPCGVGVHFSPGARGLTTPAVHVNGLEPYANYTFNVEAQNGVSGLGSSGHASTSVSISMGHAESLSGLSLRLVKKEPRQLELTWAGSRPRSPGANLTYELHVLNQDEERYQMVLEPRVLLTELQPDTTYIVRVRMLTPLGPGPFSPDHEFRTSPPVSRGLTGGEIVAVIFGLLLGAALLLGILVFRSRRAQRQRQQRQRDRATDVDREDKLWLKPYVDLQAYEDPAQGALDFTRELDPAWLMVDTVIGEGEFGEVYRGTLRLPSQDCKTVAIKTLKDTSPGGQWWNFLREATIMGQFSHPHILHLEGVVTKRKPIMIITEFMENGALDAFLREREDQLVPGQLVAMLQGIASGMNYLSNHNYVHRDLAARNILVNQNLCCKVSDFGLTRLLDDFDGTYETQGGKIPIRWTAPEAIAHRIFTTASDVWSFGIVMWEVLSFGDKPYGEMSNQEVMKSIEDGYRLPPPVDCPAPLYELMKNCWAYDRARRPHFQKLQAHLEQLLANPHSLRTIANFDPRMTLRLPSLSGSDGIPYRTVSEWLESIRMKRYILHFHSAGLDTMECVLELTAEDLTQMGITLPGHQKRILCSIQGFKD

EGFR(L858R)(h) = EGFR(L858R)(h) (Homo sapiens, UniProt P00533, L858R)
Met(Y1248D)(h) = Met(Y1248D)(h) (Homo sapiens, UniProt P08581, Y1230D)

PTK5(h), sequence (P42685 whole entry): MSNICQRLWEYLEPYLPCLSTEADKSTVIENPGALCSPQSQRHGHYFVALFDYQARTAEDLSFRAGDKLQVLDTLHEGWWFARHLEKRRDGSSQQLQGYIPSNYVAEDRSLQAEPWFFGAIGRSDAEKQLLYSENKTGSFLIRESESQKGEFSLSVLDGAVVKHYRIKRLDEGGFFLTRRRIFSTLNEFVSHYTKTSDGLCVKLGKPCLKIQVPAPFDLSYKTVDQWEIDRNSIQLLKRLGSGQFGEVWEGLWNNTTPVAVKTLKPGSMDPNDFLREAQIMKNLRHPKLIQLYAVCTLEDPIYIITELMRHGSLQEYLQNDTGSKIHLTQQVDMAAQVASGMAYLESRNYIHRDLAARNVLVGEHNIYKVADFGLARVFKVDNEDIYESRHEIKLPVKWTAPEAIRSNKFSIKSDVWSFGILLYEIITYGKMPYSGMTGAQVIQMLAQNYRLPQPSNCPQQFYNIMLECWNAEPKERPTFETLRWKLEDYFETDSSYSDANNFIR
Arg(h), sequence (P42684 whole entry): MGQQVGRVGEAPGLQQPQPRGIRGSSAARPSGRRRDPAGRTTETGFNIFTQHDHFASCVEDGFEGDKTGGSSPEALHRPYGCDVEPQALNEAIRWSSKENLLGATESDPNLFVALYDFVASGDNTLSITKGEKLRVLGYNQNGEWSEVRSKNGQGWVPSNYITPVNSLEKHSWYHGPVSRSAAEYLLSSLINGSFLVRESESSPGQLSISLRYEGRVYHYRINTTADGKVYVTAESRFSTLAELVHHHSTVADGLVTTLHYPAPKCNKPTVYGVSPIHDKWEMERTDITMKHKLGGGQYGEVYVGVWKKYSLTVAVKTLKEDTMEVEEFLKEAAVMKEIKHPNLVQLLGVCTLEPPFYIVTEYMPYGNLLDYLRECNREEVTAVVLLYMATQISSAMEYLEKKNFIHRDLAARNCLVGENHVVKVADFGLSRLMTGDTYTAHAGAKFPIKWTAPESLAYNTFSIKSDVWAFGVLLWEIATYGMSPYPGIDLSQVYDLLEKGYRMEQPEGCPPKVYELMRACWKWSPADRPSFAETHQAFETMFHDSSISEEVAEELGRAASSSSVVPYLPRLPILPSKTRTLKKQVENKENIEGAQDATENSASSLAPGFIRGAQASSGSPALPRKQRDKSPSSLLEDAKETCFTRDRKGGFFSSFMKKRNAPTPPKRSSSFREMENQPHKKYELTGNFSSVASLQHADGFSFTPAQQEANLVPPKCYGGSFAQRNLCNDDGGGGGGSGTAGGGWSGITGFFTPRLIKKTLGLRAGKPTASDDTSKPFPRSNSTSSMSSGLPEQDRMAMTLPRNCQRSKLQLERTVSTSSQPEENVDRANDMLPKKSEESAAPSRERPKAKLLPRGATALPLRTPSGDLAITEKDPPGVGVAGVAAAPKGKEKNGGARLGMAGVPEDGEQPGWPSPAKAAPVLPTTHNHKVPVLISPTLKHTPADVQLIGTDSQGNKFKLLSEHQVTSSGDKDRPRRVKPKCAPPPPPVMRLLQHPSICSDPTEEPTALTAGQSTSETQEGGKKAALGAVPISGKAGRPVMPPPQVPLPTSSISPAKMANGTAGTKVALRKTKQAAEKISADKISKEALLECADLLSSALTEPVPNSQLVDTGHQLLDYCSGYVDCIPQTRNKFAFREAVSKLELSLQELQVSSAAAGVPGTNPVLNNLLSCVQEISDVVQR
CHK2(I157T)(h), sequence (O96017 whole entry I157T): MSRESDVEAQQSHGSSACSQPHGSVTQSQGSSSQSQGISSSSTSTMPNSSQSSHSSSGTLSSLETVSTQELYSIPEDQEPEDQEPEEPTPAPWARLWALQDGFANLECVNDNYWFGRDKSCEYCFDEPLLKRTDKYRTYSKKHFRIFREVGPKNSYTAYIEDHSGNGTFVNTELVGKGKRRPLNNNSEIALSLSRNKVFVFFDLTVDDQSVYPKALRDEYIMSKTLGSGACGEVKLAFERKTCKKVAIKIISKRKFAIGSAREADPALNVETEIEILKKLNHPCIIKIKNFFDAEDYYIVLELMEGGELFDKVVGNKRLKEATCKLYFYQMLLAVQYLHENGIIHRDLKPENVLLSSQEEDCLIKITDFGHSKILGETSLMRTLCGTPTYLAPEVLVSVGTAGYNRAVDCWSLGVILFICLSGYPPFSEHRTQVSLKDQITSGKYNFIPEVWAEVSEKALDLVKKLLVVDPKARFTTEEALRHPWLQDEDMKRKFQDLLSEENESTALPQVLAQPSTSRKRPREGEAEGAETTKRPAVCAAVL

Sequence	% activity (Axl(h)) [%]	% activity (Arg(h)) [%]	% activity (CHK2(I157T)(h)) [%]	% activity (GRK7(h)) [%]	% activity (PTK5(h)) [%]	% activity (PhKγ2(h)) [%]	% activity (SGK3(h)) [%]	% activity (EphA1(h)) [%]	% activity (EGFR(L858R)(h)) [%]	% activity (Met(Y1248D)(h)) [%]
FAKLAARLYRKALARQLGVAA [MMI-0300]	52	72	43	122	132	46	10	73	–	–
KAFAKLAARLYRKALARQLGVAA [MMI-0400]	41	84	41	100	129	38	8	61	52	31
HRRIKAWLKKIKALARQLGVAA [MMI-0500]	12	22	3	93	96	16	−3	40	26	218
YARAAARQARAKALNRQLGVA [MMI-0200]	99	82	85	124	108	86	58	–	120	118
